Reference: US20200339690A1

Legend:
human LILRB2 (human) [1] = molecular target: human LILRB2 (human) (UniProt Q8N423); test: BLI Octet sandwich binning; competitor (antibody #1 on sensor) J-07
human LILRB2 (human) [2] = molecular target: human LILRB2 (human) (UniProt Q8N423); test: BLI Octet sandwich binning; competitor (antibody #1 on sensor) J-03
human LILRB2 (human) [3] = molecular target: human LILRB2 (human) (UniProt Q8N423); test: BLI Octet sandwich binning; competitor (antibody #1 on sensor) J-11
human LILRB2 (human) [4] = molecular target: human LILRB2 (human) (UniProt Q8N423); test: BLI Octet sandwich binning; competitor (antibody #1 on sensor) J-19
human LILRB2 (human) [5] = molecular target: human LILRB2 (human) (UniProt Q8N423); test: BLI Octet sandwich binning; competitor (antibody #1 on sensor) J-16
human LILRB2 (human) [6] = molecular target: human LILRB2 (human) (UniProt Q8N423); test: BLI Octet sandwich binning; competitor (antibody #1 on sensor) J-04
human LILRB2 (human) [7] = molecular target: human LILRB2 (human) (UniProt Q8N423); test: BLI Octet sandwich binning; competitor (antibody #1 on sensor) J-17
human LILRA4 (human) = human LILRA4 (human) (UniProt P59901); test: flow cytometry, LILRA4 CHOs
human LILRA4 (human), sequence (P59901 other isoform, or with tags, fused parts or gaps limits assumed): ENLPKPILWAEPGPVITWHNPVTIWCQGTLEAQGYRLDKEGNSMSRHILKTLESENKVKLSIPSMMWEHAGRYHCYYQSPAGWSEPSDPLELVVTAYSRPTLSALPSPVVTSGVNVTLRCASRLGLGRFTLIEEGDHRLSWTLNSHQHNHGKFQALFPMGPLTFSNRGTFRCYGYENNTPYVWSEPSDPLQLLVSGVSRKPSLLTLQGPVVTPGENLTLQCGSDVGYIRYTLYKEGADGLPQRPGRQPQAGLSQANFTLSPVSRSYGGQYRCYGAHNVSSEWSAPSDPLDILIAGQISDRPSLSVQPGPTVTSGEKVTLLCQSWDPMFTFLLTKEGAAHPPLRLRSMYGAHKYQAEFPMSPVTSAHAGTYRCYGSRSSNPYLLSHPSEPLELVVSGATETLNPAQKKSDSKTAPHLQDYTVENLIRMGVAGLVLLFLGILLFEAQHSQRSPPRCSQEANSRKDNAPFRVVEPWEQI

human LILRA1 (human) = human LILRA1 (human) (UniProt O75019); test: flow cytometry, LILRA1 CHOs
human LILRA1 (human), sequence (O75019 17-489 limits assumed): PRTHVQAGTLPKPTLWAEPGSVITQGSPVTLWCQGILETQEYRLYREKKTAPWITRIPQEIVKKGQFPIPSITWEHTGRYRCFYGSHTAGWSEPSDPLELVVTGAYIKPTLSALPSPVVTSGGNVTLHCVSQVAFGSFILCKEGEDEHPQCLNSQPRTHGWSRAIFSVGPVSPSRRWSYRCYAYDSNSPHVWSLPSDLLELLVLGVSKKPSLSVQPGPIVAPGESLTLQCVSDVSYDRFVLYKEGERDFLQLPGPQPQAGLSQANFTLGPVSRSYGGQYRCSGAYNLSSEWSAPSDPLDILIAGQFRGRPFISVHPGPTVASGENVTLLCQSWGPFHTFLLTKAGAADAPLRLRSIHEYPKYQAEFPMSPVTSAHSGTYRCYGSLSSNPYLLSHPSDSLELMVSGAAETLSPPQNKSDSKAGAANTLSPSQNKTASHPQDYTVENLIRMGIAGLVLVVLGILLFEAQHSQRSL

human LILRB4 (human) = human LILRB4 (human) (UniProt Q8NHJ6); test: flow cytometry, LILRB4 CHOs
human LILRA5 (human) = human LILRA5 (human) (UniProt A6NI73); test: flow cytometry, LILRA5 CHOs
human LILRA5 (human), sequence (A6NI73 42-299 limits assumed): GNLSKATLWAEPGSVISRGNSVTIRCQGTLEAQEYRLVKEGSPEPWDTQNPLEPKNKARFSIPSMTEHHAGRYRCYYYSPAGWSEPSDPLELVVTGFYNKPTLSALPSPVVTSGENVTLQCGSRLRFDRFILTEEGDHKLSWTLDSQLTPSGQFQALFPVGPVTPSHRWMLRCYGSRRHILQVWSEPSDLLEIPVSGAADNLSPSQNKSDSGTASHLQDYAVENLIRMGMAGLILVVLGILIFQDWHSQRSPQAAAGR

human LILRB2 (human) [8] = molecular target: human LILRB2 (human) (UniProt Q8N423); test: SPR, SierraSensor MASS-2; antibody captured on anti-human Fc chip, LILRB2 65 to 0.089 nM, duplicates
human LILRB2 (human) [9] = molecular target: human LILRB2 (human) (UniProt Q8N423); test: SPR, SierraSensor MASS-2; antibody captured on anti-human Fc chip, LILRB2 65 to 0.089 nM, duplicates; the reference itself
human LILRB2 (human) [10] = molecular target: human LILRB2 (human) (UniProt Q8N423); test: SPR, SierraSensor MASS-2; antibody captured on anti-human Fc chip, LILRB2 65 to 0.089 nM, triplicates
human LILRB2 (human) [11] = molecular target: human LILRB2 (human) (UniProt Q8N423); test: BLI ForteBio Octet Red96; antibody on anti-human capture sensor, LILRB2 at 50 nM and 5 nM

response of antibody #2 (human LILRB2 (human) [1])	response of antibody #2 (human LILRB2 (human) [2])	response of antibody #2 (human LILRB2 (human) [3])	response of antibody #2 (human LILRB2 (human) [4])	response of antibody #2 (human LILRB2 (human) [5])	response of antibody #2 (human LILRB2 (human) [6])	response of antibody #2 (human LILRB2 (human) [7])	Binder	further results
0.1	0.01	-0.24	0.28	0.3	0.51	-0.27	J-11 (antibody, human IgG4 S228P, kappa, V domains shown) VH: QVQLQQSGAELMKPGASVKLSCKATGYILTGYWIEWVKQRPGHGLEWIGEILPGSGSTNYNENFKGKATFTADTSSNTAYMQLSSLTTEDSAIYYCARAVLGYFDYWGQGTTLTVSS VL: DIVMTQSHKFMSTSVGDRVSITCKASQDVSTAVAWYQQKPGQSPKLLIYWASTRHTGVPDRFTGSGSGTDYTLTISSVQAEDLALYYCHQHYSTYTFGGGTKLEIKR	–
-0.3	-0.07	0.54	0.54	-0.31	-0.1	0.46	J-04 (antibody, human IgG4 S228P, kappa, V domains shown) VH: QVQLQQSGAELVRPGASVTLSCKASGYTFADYEIHWVKQTPVHGLEWIGAIDPETGGTAYNQKFKGKAILTADKSSSTAYMELRSLTSEDSAVYYCTRYYDYDDAMDYWGQGTSVTVSS VL: QIVLTQSPAIMSASPGEKVTMTCSASSSVSFMHWYQQKSGTSPKRWIYGTSKLASGVPARFSGSGSGTSYSLTISSMEAEDAATYYCQQWNGNPFTFGSGTKLETKR	binding (fold over iso) (fold over iso) (human LILRA4 (human)): 2.07
0.04	0.05	-0.39	-0.21	0.09	0.42	-0.11	J-17 (antibody, human IgG4 S228P, kappa, V domains shown) VH: QIQLVQSGPELKKPGETVKISCKASGYTFTTYGLSWVKQTPGKGLKWMGWINTYSGVPTYTDDFKGRFAFSLETSASTAYLQINNLKNEDTATYFCARPYDFDQVGFAYWGQGTLVTVSA VL: SIVMTQTPKFLLVSAGDRVSITCKASQTVSSDVAWYQQKAGQSPKLLIYYASNRYTGVPDRFTGSGYGTDFTFTISTVQAEDLAVYFCQQDYSSPFTFGGGSKLEIKR	binding (fold over iso) (fold over iso) (human LILRA1 (human)): 7.31
–	–	–	–	–	–	–	J-19.h4 (antibody, human IgG4 S228P, kappa, V domains shown) VH: QVTLKESGPALVKPTHTLTLTCTFSGFSLNTYAMGVSWIRQPPGKALEWLASIWWNGNKYNNPSLKSRLTISKDTSKNQVVLTMTNMDPEDTATFYCAHSRIIRFTDYVMDAWGRGTTVTVSS VL: DIVMTQSPSSLSASVGDTVTITCRASEDIYNDLAWYQQKPGKAPQLLLYNANSLHTGVPSRFSGSGSGTDYTLTISTLQPEDFATYYCQQYYDYPLTFGPGTKVHIKR	binding (fold over iso) (fold over iso) (human LILRB4 (human)): 2.02; binding (fold over iso) (fold over iso) (human LILRA5 (human)): 2.14
–	–	–	–	–	–	–	J-19.h1 (antibody, human IgG4 S228P, kappa, V domains shown) VH: QITLKESGPTLVKPTQTLTLTCTFSGFSLNTYAMGVSWIRQPPGKALEWLASIWWNGNKYNNPSLKSRLTVTKDTSKNQVVLTMTNMDPVDTATYYCAHSRIIRFTDYVMDAWGQGTLVTVSS VL: DIQMTQSPSSLSTSVGDRVTITCRASEDIYNDLAWYQQKPGKAPKLLIYNANSLHTGVASRFSGSGSGTDFTFTISSLQPEDVATYFCQQYYDYPLTFGQGTKLEIKR	Kd (human LILRB2 (human) [8]): 2.49 nM; koff (human LILRB2 (human) [8]): 0.00176 s⁻¹; kon (human LILRB2 (human) [8]): 705000 M⁻¹ s⁻¹; Fold difference over J-19.h1 (human LILRB2 (human) [9]): 1 fold
–	–	–	–	–	–	–	J-19.h6 (antibody, human IgG4 S228P, kappa, V domains shown) VH: QITLKESGPTLVKPTQTLTLTCTFSGFSLNTYAMGVSWIRQPPGKALEWLASIWWNGNKYNNPSLKSRLTVTKDTSKNQVVLTMTNMDPVDTATYYCAHSRIIDFTDYVMDAWGQGTLVTVSS VL: DIQMTQSPSSLSTSVGDRVTITCRASEDIYNDLAWYQQKPGKAPKLLIYNANSLHTGVASRFSGSGSGTDFTFTISSLQPEDVATYFCQQYYDYPLTFGQGTKLEIKR	Fold difference over J-19.h1 (human LILRB2 (human) [10]): 3.47 fold; Kd (human LILRB2 (human) [10]): 0.718 nM; koff (human LILRB2 (human) [10]): 0.000592 s⁻¹; kon (human LILRB2 (human) [10]): 825000 M⁻¹ s⁻¹
–	–	–	–	–	–	–	J-19.h5 (antibody, human IgG4 S228P, kappa, V domains shown) VH: QITLKESGPTLVKPTQTLTLTCTFSGFSLNTYAMGVSWIRQPPGKALEWLASIWWNGNKYNNPSLKSRLTVTKDTSKNQVVLTMTNMDPVDTATYYCAHSRIIAFTDYVMDAWGQGTLVTVSS VL: DIQMTQSPSSLSTSVGDRVTITCRASEDIYNDLAWYQQKPGKAPKLLIYNANSLHTGVASRFSGSGSGTDFTFTISSLQPEDVATYFCQQYYDYPLTFGQGTKLEIKR	fold higher affinity compared to J-19.h1 (human LILRB2 (human) [11]): 2 fold; Fold difference over J-19.h1 (human LILRB2 (human) [10]): 1.91 fold; Kd (human LILRB2 (human) [10]): 1.31 nM; koff (human LILRB2 (human) [10]): 0.00115 s⁻¹; kon (human LILRB2 (human) [10]): 876000 M⁻¹ s⁻¹
–	–	–	–	–	–	–	J-19.h7 (antibody, human IgG4 S228P, kappa, V domains shown) VH: QITLKESGPTLVKPTQTLTLTCTFSGFSLNTYAMGVSWIRQPPGKALEWLASIWWNGNKYNNPSLKSRLTVTKDTSKNQVVLTMTNMDPVDTATYYCAHSRIIEFTDYVMDAWGQGTLVTVSS VL: DIQMTQSPSSLSTSVGDRVTITCRASEDIYNDLAWYQQKPGKAPKLLIYNANSLHTGVASRFSGSGSGTDFTFTISSLQPEDVATYFCQQYYDYPLTFGQGTKLEIKR	Fold difference over J-19.h1 (human LILRB2 (human) [8]): 2.73 fold; Kd (human LILRB2 (human) [8]): 0.912 nM; koff (human LILRB2 (human) [8]): 0.000788 s⁻¹; kon (human LILRB2 (human) [8]): 865000 M⁻¹ s⁻¹
0.27	0.15	0.71	-0.21	0.47	0.67	-0.1	J-19 (antibody, human IgG4 S228P, kappa, V domains shown) VH: QVTLKESGPGILQPSHTLSLTCSFSGFSLNTYAMGVSWIRQPSGKGLEWLASIWWNGNKYNNPSLKSRLTVSKDTSNNQAFLKVTSVDTADTATYYCAHSRIIRFTDYVMDAWGQGASVTVSS VL: DIQMTQSPASLSTFLGEPVTIECRASEDIYNDLAWYQQKPGKSPQLLIYNANSLHTGVPSRFSGSGSGTQYSLKINSLQSEDVASYFCQQYYDYPLTFGSGTKLEIKR	–
